Substitutions are numbered along the chain they refer to. In names and notes the source's numbering stands.

The record followed here is patent US20120283317A1 (University of California, published 2012).

Data set [1] deals with the molecule itself. Description: blue-native gel, PNPASE immunoblot (self-assembly). As for the experimental part: Listed are the in vitro effects of mutations on 3′ polymerase and RNA degrading activities as reported by Portnoy et al. (2008) RNA 14: 297-309. […] Radiolabeled RNase P RNA was incubated with isolated yeast mitochondria expressing an empty vector or the listed PNPASE constructs. […] A PORIN immunoblot confirms the co-localization of PNPASE WT and mutants in yeast mitochondria. The assembly state of WT and point mutant PNPASE was determined by solubilization with 1% digitonin and separation on a 6-16% BN gel, followed by PNPASE immunoblot. FIG. 11B (upper) show gels of WT and S484A PNPASE purified from yeast mitochondria using immunoprecipitation. FIG. 11B (lower) show gels of WT or S484A mutant PNPASE was incubated with radiolabeled RNase P RNA for 10 min at 25° C. to assess degradation activity. The asterisk marks degradation products. FIG. 11 C (left) is a gel showing the stability of RNase P RNA imported into mitochondria.
The assembly state of PNPASE was also investigated. […] Soluble proteins were separated on a 6-16% BN gel and PNPASE was detected by immunoblot. […] The PNPASE-HisPC were solubilized with 1% digitonin (Dig) or 0.5% dodecylmaltoside (DDM) and the soluble proteins were separated on a 6-16% BN gel and detected by immunoblot.

Data set [2] deals with the molecule itself. Description: 1% digitonin, 6-16% blue-native gel, PNPASE immunoblot (self-assembly). As for the experimental part: Radiolabeled RNase P RNA was incubated with isolated yeast mitochondria expressing an empty vector or the listed PNPASE constructs. […] A PORIN immunoblot confirms the co-localization of PNPASE WT and mutants in yeast mitochondria. The assembly state of WT and point mutant PNPASE was determined by solubilization with 1% digitonin and separation on a 6-16% BN gel, followed by PNPASE immunoblot. FIG. 11B (upper) show gels of WT and S484A PNPASE purified from yeast mitochondria using immunoprecipitation. FIG. 11B (lower) show gels of WT or S484A mutant PNPASE was incubated with radiolabeled RNase P RNA for 10 min at 25° C. to assess degradation activity. The asterisk marks degradation products. FIG. 11 C (left) is a gel showing the stability of RNase P RNA imported into mitochondria.
To determine whether the RNA import or stabilization activity of PNPASE was separable from its RNA processing activities, RNase P RNA import was studied when different PNPASE mutants were expressed in yeast mitochondria (FIG. 11A). The point mutants generated and tested were based on prior studies (Portnoy et al. (2008) RNA 14: 297-309). Mutants D135G and S484A lacked poly-A polymerase and RNA degradation activities in vitro. […] Of the four mutants, PNPASE S484A and R445E/R446E supported the import or stabilization of RNase P RNA, whereas mutants D135G and D544G were defective in this function (FIG. 11A). Based on the prior studies of others, it was expected that mutant D135G would fail to form a trimeric complex from prior studies (Portnoy et al. (2008) RNA 14: 297-309).

B1: human PNPASE (polynucleotide phosphorylase) expressed in yeast mitochondria (enzyme, UniProt Q8TCS8 46-783, looked up)
chain: AVAVDLGNRKLEISSGKLARFADGSAVVQSGDTAVMVTAVSKTKPSPSQFMPLVVDYRQKAAAAGRIPTNYLRREIGTSDKEILTSRIIDRSIRPLFPAGYFYDTQVLCNLLAVDGVNEPDVLAINGASVALSLSDIPWNGPVGAVRIGIIDGEYVVNPTRKEMSSSTLNLVVAGAPKSQIVMLEASAENILQQDFCHAIKVGVKYTQQIIQGIQQLVKETGVTKRTPQKLFTPSPEIVKYTHKLAMERLYAVFTDYEHDKVSRDEAVNKIRLDTEEQLKEKFPEADPYEIIESFNVVAKEVFRSIVLNEYKRCDGRDLTSLRNVSCEVDMFKTLHGSALFQRGQTQVLCTVTFDSLESGIKSDQVITAINGIKDKNFMLHYEFPPYATNEIGKVTGLNRRELGHGALAEKALYPVIPRDFPFTIRVTSEVLESNGSSSMASACGGSLALMDSGVPISSAVAGVAIGLVTKTDPEKGEIEDYRLLTDILGIEDYNGDMDFKIAGTNKGITALQADIKLPGIPIKIVMEAIQQASVAKKEILQIMNKTISKPRASRKENGPVVETVQVPLSKRAKFVGPGGYNLKKLQAETGVTISQVDEETFSVFAPTPSAMHEARDFITEICKDDQEQQLEFGAVYTATITEIRDTGVMVKLYPNMTAVLLHNTQLDQRKIKHPTALGLEVGQEIQVKYFGRDPADGRMRLSRKVLQSPATTVVRTLNDRSSIVMGEPISQSSSNSQ
notes: Homo-oligomer of about 240 kDa on blue-native gels; also called hPNP; WT PNPASE
Turning to B1, the binding result in data set [1] is recorded as “binds”.

B2: human PNPASE mutant S484A (enzyme, UniProt Q8TCS8 46-783, looked up)
chain: B1 chain with S439A
notes: Point mutants are based on Portnoy et al. (2008); The numbering scheme is not further defined
As to B2, the binding result in data set [2] is “binds”.

B3: human PNPASE double mutant R445E/R446E (enzyme, UniProt Q8TCS8 46-783, looked up)
chain: B1 chain with R400E, R401E
notes: as for B2
For the protein B3, the binding result in data set [2] is on record as “binds”.

B4: human PNPASE mutant D544G (enzyme, UniProt Q8TCS8 46-783, looked up)
chain: B1 chain with D499G
notes: as for B2
As for B4, the binding result in data set [2] is reported as “binds”.

B5: human PNPASE mutant D135G (enzyme, UniProt Q8TCS8 46-783, looked up)
chain: B1 chain with D90G
notes: as for B2
Take B5: the binding result in data set [1] is reported as “binds”.
